In IntAct's records for PubMed 19513235:

B1: Mitogen-activated protein kinase kinase 2 (Arabidopsis thaliana (Mouse-ear cress)), Q9S7U9 (parent)
chain: MKKGGFSNNLKLAIPVAGEQSITKFLTQSGTFKDGDLRVNKDGVRIISQLEPEVLSPIKPADDQLSLSDLDMVKVIGKGSSGVVQLVQHKWTGQFFALKVIQLNIDEAIRKAIAQELKINQSSQCPNLVTSYQSFYDNGAISLILEYMDGGSLADFLKSVKAIPDSYLSAIFRQVLQGLIYLHHDRHIIHRDLKPSNLLINHRGEVKITDFGVSTVMTNTAGLANTFVGTYNYMSPERIVGNKYGNKSDIWSLGLVVLECATGKFPYAPPNQEETWTSVFELMEAIVDQPPPALPSGNFSPELSSFISTCLQKDPNSRSSAKELMEHPFLNKYDYSGINLASYFTDAGSPLATLGNLSGTFSV
partner: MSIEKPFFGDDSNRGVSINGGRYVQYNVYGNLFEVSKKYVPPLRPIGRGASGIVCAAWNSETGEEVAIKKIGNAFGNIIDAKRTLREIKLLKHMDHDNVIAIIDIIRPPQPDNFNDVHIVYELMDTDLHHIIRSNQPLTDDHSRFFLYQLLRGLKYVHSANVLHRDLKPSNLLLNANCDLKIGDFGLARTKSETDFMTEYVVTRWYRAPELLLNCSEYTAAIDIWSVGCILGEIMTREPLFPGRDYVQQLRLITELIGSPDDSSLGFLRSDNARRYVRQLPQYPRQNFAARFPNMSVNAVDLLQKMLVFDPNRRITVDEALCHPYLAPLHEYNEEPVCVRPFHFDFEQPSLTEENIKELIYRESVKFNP
B2: Mitogen-activated protein kinase kinase 1 (Arabidopsis thaliana (Mouse-ear cress)), Q94A06 (parent)
chain: MNRGSLCPNPICLPPLEQSISKFLTQSGTFKDGDLRVNKDGIQTVSLSEPGAPPPIEPLDNQLSLADLEVIKVIGKGSSGNVQLVKHKLTQQFFALKVIQLNTEESTCRAISQELRINLSSQCPYLVSCYQSFYHNGLVSIILEFMDGGSLADLLKKVGKVPENMLSAICKRVLRGLCYIHHERRIIHRDLKPSNLLINHRGEVKITDFGVSKILTSTSSLANSFVGTYPYMSPERISGSLYSNKSDIWSLGLVLLECATGKFPYTPPEHKKGWSSVYELVDAIVENPPPCAPSNLFSPEFCSFISQCVQKDPRDRKSAKELLEHKFVKMFEDSDTNLSAYFTDAGSLIPPLAN
partner: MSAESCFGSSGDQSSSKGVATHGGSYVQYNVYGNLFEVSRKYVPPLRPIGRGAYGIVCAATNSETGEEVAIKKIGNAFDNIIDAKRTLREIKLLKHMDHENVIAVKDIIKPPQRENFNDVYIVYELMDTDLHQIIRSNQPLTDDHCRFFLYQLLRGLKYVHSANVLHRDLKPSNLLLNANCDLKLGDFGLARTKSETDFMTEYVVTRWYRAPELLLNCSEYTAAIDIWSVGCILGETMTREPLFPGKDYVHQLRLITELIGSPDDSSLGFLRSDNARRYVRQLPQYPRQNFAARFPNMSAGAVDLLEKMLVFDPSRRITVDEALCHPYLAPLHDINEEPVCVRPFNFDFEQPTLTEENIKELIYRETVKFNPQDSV
B3: Mitogen-activated protein kinase kinase 1 (Arabidopsis thaliana (Mouse-ear cress)), Q94A06 (parent)
chain: B2 chain
partner: B1 partner
B4: Mitogen-activated protein kinase kinase 9 (Arabidopsis thaliana (Mouse-ear cress)), Q9FX43 (parent)
chain: MALVRERRQLNLRLPLPPISDRRFSTSSSSATTTTVAGCNGISACDLEKLNVLGCGNGGIVYKVRHKTTSEIYALKTVNGDMDPIFTRQLMREMEILRRTDSPYVVKCHGIFEKPVVGEVSILMEYMDGGTLESLRGGVTEQKLAGFAKQILKGLSYLHALKIVHRDIKPANLLLNSKNEVKIADFGVSKILVRSLDSCNSYVGTCAYMSPERFDSESSGGSSDIYAGDIWSFGLMMLELLVGHFPLLPPGQRPDWATLMCAVCFGEPPRAPEGCSEEFRSFVECCLRKDSSKRWTAPQLLAHPFLREDL

Variants of: B1
Details: with mpk11_arath MPK11, Q9LMM5

| Variant | effect of a mutation on the interaction |
| --- | --- |
| MKKGGFSNNLKLAIPVAGEQSITKFLTQSGTFKDGDLRVNKDGVRIISQLEPEVLSPIKPADDQLSLSDLDMVKVIGKGSSGVVQLVQHKWTGQFFALKVIQLNIDEAIRKAIAQELKINQSSQCPNLVTSYQSFYDNGAISLILEYMDGGSLADFLKSVKAIPDSYLSAIFRQVLQGLIYLHHDRHIIHRDLKPSNLLINHRGEVKITDFGVSTVMTNTAGLANEFVGTYNYMSPERIVGNKYGNKSDIWSLGLVVLECATGKFPYAPPNQEETWTSVFELMEAIVDQPPPALPSGNFSPELSSFISTCLQKDPNSRSSAKELMEHPFLNKYDYSGINLASYFTDAGSPLATLGNLSGTFSV [T226E] | increasing interaction |
| MKKGGFSNNLKLAIPVAGEQSITKFLTQSGTFKDGDLRVNKDGVRIISQLEPEVLSPIKPADDQLSLSDLDMVKVIGKGSSGVVQLVQHKWTGQFFALKVIQLNIDEAIRKAIAQELKINQSSQCPNLVTSYQSFYDNGAISLILEYMDGGSLADFLKSVKAIPDSYLSAIFRQVLQGLIYLHHDRHIIHRDLKPSNLLINHRGEVKITDFGVSTVMTNDAGLANTFVGTYNYMSPERIVGNKYGNKSDIWSLGLVVLECATGKFPYAPPNQEETWTSVFELMEAIVDQPPPALPSGNFSPELSSFISTCLQKDPNSRSSAKELMEHPFLNKYDYSGINLASYFTDAGSPLATLGNLSGTFSV [T220D] | increasing interaction |

Variants of: B2
Details: with mpk4_arath MPK4, Q39024

| Variant | effect of a mutation on the interaction |
| --- | --- |
| MNRGSLCPNPICLPPLEQSISKFLTQSGTFKDGDLRVNKDGIQTVSLSEPGAPPPIEPLDNQLSLADLEVIKVIGKGSSGNVQLVKHKLTQQFFALKVIQLNTEESTCRAISQELRINLSSQCPYLVSCYQSFYHNGLVSIILEFMDGGSLADLLKKVGKVPENMLSAICKRVLRGLCYIHHERRIIHRDLKPSNLLINHRGEVKITDFGVSKILTSTSSLANDFVGTYPYMSPERISGSLYSNKSDIWSLGLVLLECATGKFPYTPPEHKKGWSSVYELVDAIVENPPPCAPSNLFSPEFCSFISQCVQKDPRDRKSAKELLEHKFVKMFEDSDTNLSAYFTDAGSLIPPLAN [S224D] | increasing interaction |
| MNRGSLCPNPICLPPLEQSISKFLTQSGTFKDGDLRVNKDGIQTVSLSEPGAPPPIEPLDNQLSLADLEVIKVIGKGSSGNVQLVKHKLTQQFFALKVIQLNTEESTCRAISQELRINLSSQCPYLVSCYQSFYHNGLVSIILEFMDGGSLADLLKKVGKVPENMLSAICKRVLRGLCYIHHERRIIHRDLKPSNLLINHRGEVKITDFGVSKILTSESSLANSFVGTYPYMSPERISGSLYSNKSDIWSLGLVLLECATGKFPYTPPEHKKGWSSVYELVDAIVENPPPCAPSNLFSPEFCSFISQCVQKDPRDRKSAKELLEHKFVKMFEDSDTNLSAYFTDAGSLIPPLAN [T218E] | increasing interaction |

Variants of: B3
Details: with mpk11_arath MPK11, Q9LMM5

| Variant | effect of a mutation on the interaction |
| --- | --- |
| MNRGSLCPNPICLPPLEQSISKFLTQSGTFKDGDLRVNKDGIQTVSLSEPGAPPPIEPLDNQLSLADLEVIKVIGKGSSGNVQLVKHKLTQQFFALKVIQLNTEESTCRAISQELRINLSSQCPYLVSCYQSFYHNGLVSIILEFMDGGSLADLLKKVGKVPENMLSAICKRVLRGLCYIHHERRIIHRDLKPSNLLINHRGEVKITDFGVSKILTSESSLANSFVGTYPYMSPERISGSLYSNKSDIWSLGLVLLECATGKFPYTPPEHKKGWSSVYELVDAIVENPPPCAPSNLFSPEFCSFISQCVQKDPRDRKSAKELLEHKFVKMFEDSDTNLSAYFTDAGSLIPPLAN [T218E] | increasing interaction |
| MNRGSLCPNPICLPPLEQSISKFLTQSGTFKDGDLRVNKDGIQTVSLSEPGAPPPIEPLDNQLSLADLEVIKVIGKGSSGNVQLVKHKLTQQFFALKVIQLNTEESTCRAISQELRINLSSQCPYLVSCYQSFYHNGLVSIILEFMDGGSLADLLKKVGKVPENMLSAICKRVLRGLCYIHHERRIIHRDLKPSNLLINHRGEVKITDFGVSKILTSTSSLANDFVGTYPYMSPERISGSLYSNKSDIWSLGLVLLECATGKFPYTPPEHKKGWSSVYELVDAIVENPPPCAPSNLFSPEFCSFISQCVQKDPRDRKSAKELLEHKFVKMFEDSDTNLSAYFTDAGSLIPPLAN [S224D] | increasing interaction |

Variants of: B4
Details: with mpk6_arath MPK6, Q39026
mpk6_arath MPK6, Q39026, sequence (Q39026 whole entry): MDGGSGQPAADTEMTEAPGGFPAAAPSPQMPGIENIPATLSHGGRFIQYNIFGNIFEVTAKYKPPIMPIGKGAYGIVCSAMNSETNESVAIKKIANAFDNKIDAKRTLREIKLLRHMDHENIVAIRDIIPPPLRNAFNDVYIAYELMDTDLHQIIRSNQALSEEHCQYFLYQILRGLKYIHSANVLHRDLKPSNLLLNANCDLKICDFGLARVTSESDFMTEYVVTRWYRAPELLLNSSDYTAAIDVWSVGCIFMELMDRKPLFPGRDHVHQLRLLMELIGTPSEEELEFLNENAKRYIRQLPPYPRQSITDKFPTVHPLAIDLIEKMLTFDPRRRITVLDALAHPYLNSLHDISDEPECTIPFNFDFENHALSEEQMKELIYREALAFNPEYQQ

| Variant | effect of a mutation on the interaction |
| --- | --- |
| MALVRERRQLNLRLPLPPISDRRFSTSSSSATTTTVAGCNGISACDLEKLNVLGCGNGGIVYKVRHKTTSEIYALKTVNGDMDPIFTRQLMREMEILRRTDSPYVVKCHGIFEKPVVGEVSILMEYMDGGTLESLRGGVTEQKLAGFAKQILKGLSYLHALKIVHRDIKPANLLLNSKNEVKIADFGVSKILVRELDSCNSYVGTCAYMSPERFDSESSGGSSDIYAGDIWSFGLMMLELLVGHFPLLPPGQRPDWATLMCAVCFGEPPRAPEGCSEEFRSFVECCLRKDSSKRWTAPQLLAHPFLREDL [S195E] | increasing interaction |

Variants of: B4
Details: with mpk10_arath MPK10, Q9M1Z5
mpk10_arath MPK10, Q9M1Z5, sequence (Q9M1Z5 whole entry): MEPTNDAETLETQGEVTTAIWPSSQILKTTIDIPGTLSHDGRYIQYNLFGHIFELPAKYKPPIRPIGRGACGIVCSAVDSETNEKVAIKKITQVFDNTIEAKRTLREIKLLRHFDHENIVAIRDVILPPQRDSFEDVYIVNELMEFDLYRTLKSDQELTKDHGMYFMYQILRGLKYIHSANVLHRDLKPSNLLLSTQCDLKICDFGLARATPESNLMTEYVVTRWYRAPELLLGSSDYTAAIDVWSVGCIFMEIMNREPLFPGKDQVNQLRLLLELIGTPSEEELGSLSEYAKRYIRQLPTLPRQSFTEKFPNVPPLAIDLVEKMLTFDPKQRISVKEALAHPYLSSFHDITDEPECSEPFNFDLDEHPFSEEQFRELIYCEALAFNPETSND

| Variant | effect of a mutation on the interaction |
| --- | --- |
| MALVRERRQLNLRLPLPPISDRRFSTSSSSATTTTVAGCNGISACDLEKLNVLGCGNGGIVYKVRHKTTSEIYALKTVNGDMDPIFTRQLMREMEILRRTDSPYVVKCHGIFEKPVVGEVSILMEYMDGGTLESLRGGVTEQKLAGFAKQILKGLSYLHALKIVHRDIKPANLLLNSKNEVKIADFGVSKILVRELDSCNSYVGTCAYMSPERFDSESSGGSSDIYAGDIWSFGLMMLELLVGHFPLLPPGQRPDWATLMCAVCFGEPPRAPEGCSEEFRSFVECCLRKDSSKRWTAPQLLAHPFLREDL [S195E] | increasing interaction |
